{
  "source": "the nanobody polyreactivity screen of Harvey et al. (2022)",
  "data": [
    {"assay": "yeast display, Sf9 membrane polyspecificity reagent, FACS + sequencing; frameworks hold sequencing errors", "procedure,_shortened": "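Genes from sorted yeast were amplified by colony PCR, read by MiSeq 2 × 250 sequencing and filtered on CDR length. These cells carried a synthetic nanobody library in Saccharomyces cerevisiae BJ5465 and were sorted by FACS into low and high (top ~1%) gates on anti-HA and streptavidin fluorescence. Polyreactivity is labelled according to the gate of origin.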", "values": [
      {"sequence": "QVQLVESGGGLVQAGGSLRLSCAASGSTFAWNAMGWDRQAPGKERELVAAISKSGGSTYYADSVKGRFTISRDNAKNTVYLQMNSLKPEDTAVYYCAASGTVYARVRYYYWGQGTQVTVSS", "polyreactivity (PSR sort gate)": "high polyreactivity"},
      {"sequence": "QVQLVESGGGLVQAGGSLRLSCAASGSTFAWYAMGWYRQAPGKERELVAGIWNTGRTYYADSVKGRFTISRDNAKNTVYLLMHSLKPEDTAVYYCAALYNSPNVTYYYWGQGTQVTVSS", "polyreactivity (PSR sort gate)": "high polyreactivity"},
      {"sequence": "QVQLVESGGGLVQAGGSLRLSCAASGSTFAWYAMGWYRTAPGKERELVAAISRTGRTYYADSVKGRFTMSRDNAKNTVYLQMNSLKPEDTAVYYCAARIERFYRDQRYDYWGQGTQVTVSS", "polyreactivity (PSR sort gate)": "high polyreactivity"},
      {"sequence": "QVQLVESGGGLVQAGGSLRLSCAASGSTFAYNDMGWYRQAPGKERDLVADIRYGGNTNYADSVKGRFTISRDNAKNTDYFQMNSLKPVDTSVYYCATDGYRSDVYHPDYRYDYWGQCTQVTVSS", "polyreactivity (PSR sort gate)": "low polyreactivity"},
      {"sequence": "QVQLVESGGGLVQAGGSLRLSCAASGSTFAYNTMGWYRQAPGKDRELVAAISQRGGSTYADSVKGRFTISRDNAKNTVYLQMNSLKPEDNAVYYCAADGYTYKFDYWGQGTQVTVSS", "polyreactivity (PSR sort gate)": "low polyreactivity"},
      {"sequence": "QVQLVESGGGLVQAGGSLRLSCAASGSTFAYYAMGWYRPAPGKERELVAVISVRGGSTYYAESVKGRFTISRDNAKNTVYLQMNSLKPEDTAVYYCAADTFAGYYYWGQGTQVTVSS", "polyreactivity (PSR sort gate)": "high polyreactivity"},
      {"sequence": "QVQLVESGGGLVQAGGSLRLSCAASGSTFAYYAMGWYRPAPGTERELVAAISKSGGSTYYADSVKGRFTISRDNAKNTFYIQMISLKPEDTAVYYCAAGKFRYRSRFDFWGQGTQVTVSS", "polyreactivity (PSR sort gate)": "high polyreactivity"},
      {"sequence": "QVQLVESGGGLVQAGGSLRLSCAASGSTFAYYAMGWYRPAPGTERELVAAISSGGSTYYADSVKGRFTISRDNAKNTVYLQMNSLKPEDTAVYYCAADAVKASVSYIVPYAAYDYWGQGTQVTVSS", "polyreactivity (PSR sort gate)": "low polyreactivity"},
      {"sequence": "QVQLVESGGGLVQAGGSLRLSCAASGSTFAYYAMGWYRQAPGKEREFVAVINWRGGSTYYADSVKGRFTISRDNAKNTVYLQMNSLKQEDTAVYYCNGRSGGYYYGFDYWGQGTQVTVSS", "polyreactivity (PSR sort gate)": "low polyreactivity"},
      {"sequence": "QVQLVESGGGLVQAGGSLRLSCAASGSTFAYYAMGWYRQAPGKERELVAAISVSGGRTYYADSVKGRFTISRDNAKNTVYLQMNSLKPEDTAVYYCAKRFIYGRYNYWGQGTQVTVSS", "polyreactivity (PSR sort gate)": "high polyreactivity"},
      {"sequence": "QVQLVESGGGLVQAGGSLRLSCAASGSTFAYYAMGWYRQAPGKERELVAAITIDGRTSYADSVKGRFTISRDNAKNTVYLQMNSLKAEDTAVYYCAADSSAWLYDYWGQGTQVTVSS", "polyreactivity (PSR sort gate)": "low polyreactivity"},
      {"sequence": "QVQLVESGGGLVQAGGSLRLSCAASGSTFAYYAMGWYRQAPGKERELVAGISGSGGSTYYADSVKGRFTISRDNAKNTVYLQLNSLKPEDTAVYYCAVVQRSKRTYPWYDYWGQGTQVTVSS", "polyreactivity (PSR sort gate)": "low polyreactivity"},
      {"sequence": "QVQLVESGGGLVQAGGSLRLSCAASGSTFAYYAMGWYRQAPGKERELVASISWRGGSTYYAESVKGRFTISRDNAKNTVYLQMNSLKPEDTAVYYCAAGRFYTWSRSQEYDYWGQGTQVTVSS", "polyreactivity (PSR sort gate)": "low polyreactivity"},
      {"sequence": "QVQLVESGGGLVQAGGSLRLSCAASGSTFAYYTMGWYRQAPGKERELVAAISKSGGSTTYADSVKGRFTISRDNAKNTVYLQMNSLKPEETAVYYCAAARKYYGYNYWGQGTQVTVSS", "polyreactivity (PSR sort gate)": "high polyreactivity"},
      {"sequence": "QVQLVESGGGLVQAGGSLRLSCAASGSTFDANAMGWYRQAPGKERELVAAISSSGVRTYYADSVKGRFTISRDNAKNTVYLQMNSLKPEDTAVYYCAAGVVISTVDVTYGYWGQGTQVTVSS", "polyreactivity (PSR sort gate)": "low polyreactivity"},
      {"sequence": "QVQLVESGGGLVQAGGSLRLSCAASGSTFDANAMGWYRQAPGKERELVATISDGGSTNYADSVKGRFTISRDNAKNTVYLQMNSLKPEDTAVYYCAAVKLFLGLGYDYWGQGTQVTVSS", "polyreactivity (PSR sort gate)": "low polyreactivity"},
      {"sequence": "QVQLVESGGGLVQAGGSLRLSCAASGSTFDANAMGWYRQAPGKERELVATISDGGSTNYADSVKGRFTISRDNAKNTVYVQMNSLKPEDTAVYYCAAVKLFLGLGYDYWGQGTEVTVSS", "polyreactivity (PSR sort gate)": "low polyreactivity"},
      {"sequence": "QVQLVESGGGLVQAGGSLRLSCAASGSTFDAYAMGWCRQAPGTERELVAAITNAGSTNYADSVKGRFTISRDNAKNTVYLQMNSLKPEDTAVYYCATDWYHRYLDGRYDYWVQGTQVTVSS", "polyreactivity (PSR sort gate)": "low polyreactivity"},
      {"sequence": "QVQLVESGGGLVQAGGSLRLSCAASGSTFDDYAMGWYRQAPGKERELVAAIYWSSGRTYYADSVKGRFTISRDNAKNTVYLQMNSLKPEDTAVYYCAARNRYDRLRYYYWGQGTQVTVSS", "polyreactivity (PSR sort gate)": "high polyreactivity"},
      {"sequence": "QVQLVESGGGLVQAGGSLRLSCAASGSTFDENAMGWYRQAPGKERELVAVISDSGGSTYYADSVKGRFTISRDNAKNTVDLQMNSLKPEVTAVYYCAKDVPPEYPTSSYDYWGQGTQVTVSS", "polyreactivity (PSR sort gate)": "low polyreactivity"},
      {"sequence": "QVQLVESGGGLVQAGGSLRLSCAASGSTFDFNAMGWYRQAPGKERELVAAITGSDGNTYYADSVKGRFTISRDNAKNTVYLQMNSLKPEDTAVYYCAADFSWWSKYVVLYDYWGQGTQVTVSS", "polyreactivity (PSR sort gate)": "low polyreactivity"},
      {"sequence": "QVQLVESGGGLVQAGGSLRLSCAASGSTFDFYAMAWYRQAPGKERELVADITSGGRTSYADSVKGRFTISRDNAKNTVYLQMNSLKPEDTAVYYCAALTRWYAWYDYWGQGTQVTVSS", "polyreactivity (PSR sort gate)": "high polyreactivity"},
      {"sequence": "QVQLVESGGGLVQAGGSLRLSCAASGSTFDGYAMGWYRQAPGKERELVAAISASGGSTYYADSVKGRFTISRDNAKNTVYLQMNSLKPEDTAVYYCAAQVRYLCYRYDYWGQGSQVTVSS", "polyreactivity (PSR sort gate)": "high polyreactivity"},
      {"sequence": "QVQLVESGGGLVQAGGSLRLSCAASGSTFDGYAMGWYTQAPGKERELVAAISKNGGRTYYADSVKGRFTISRDNAKNTVYLQMNSLKPEDTAVYYCAIDIIKYDYDYWGQGTQVTVSS", "polyreactivity (PSR sort gate)": "low polyreactivity"},
      {"sequence": "QVQLVESGGGLVQAGGSLRLSCAASGSTFDHYTMGWYRPAPGKERELVAAINRIGDSTYYADSVKGRFTISRDNAKNTVYLQMNSLKPEDTAVYYCAARHVPRFNKYGYWGQGTQVTVSS", "polyreactivity (PSR sort gate)": "high polyreactivity"},
      {"sequence": "QVQLVESGGGLVQAGGSLRLSCAASGSTFDINAMGWYRQAPGKERELVAAISWGGGSTYYADSVKGRFTISRDNAKNTVYLQMNSLKPEDTAVYYCAKLKGTQPNRYDYWGQGTQVTVSS", "polyreactivity (PSR sort gate)": "low polyreactivity"},
      {"sequence": "QVQLVESGGGLVQAGGSLRLSCAASGSTFDIYAMGWYRQAPGKERELVAAIRYSGGSTYYADSVKGRFTISRDNAKYTVYLQMNSLKPEDTAVYYCAADPYQLWHYYYFGMDYWGQGTEVTVSS", "polyreactivity (PSR sort gate)": "low polyreactivity"},
      {"sequence": "QVQLVESGGGLVQAGGSLRLSCAASGSTFDIYAMGWYRQAPGKERELVAVISGGDGSTYYADSVKGRFTISRDNAKNTVYLQMNSLKPEDTAVYFCAADYISPGYWDGEYDCWGQGTQVTVSS", "polyreactivity (PSR sort gate)": "low polyreactivity"},
      {"sequence": "QVQLVESGGGLVQAGGSLRLSCAASGSTFDIYAMGWYRQAPGNERELVAAISVSGGSTYYADSVKGRFTIARDNAKNTVDLQMNSLKPEDTAVYYCAAEAYTRFYQQFDYWGQGTQVTVSS", "polyreactivity (PSR sort gate)": "high polyreactivity"},
      {"sequence": "QVQLVESGGGLVQAGGSLRLSCAASGSTFDKKAMGWYRQAPGKERELVAAITWRGGRTYYADSVKGRFTISRDNAKNTVYLQLNSLKPEDTAVYYCNKVSWEQMDYWGQGTQVTVSS", "polyreactivity (PSR sort gate)": "low polyreactivity"},
      {"sequence": "QVQLVESGGGLVQAGGSLRLSCAASGSTFDKNAMGWYRQAPGKERELVDAISIGVSTNYADSVKGRFTISRDNAKNTVYLQMNSLKPEDTAVYYCAADLFFGAETVYYDKFDYWGQGTQVTVSS", "polyreactivity (PSR sort gate)": "low polyreactivity"},
      {"sequence": "QVQLVESGGGLVQAGGSLRLSCAASGSTFDNYAMGWNRQAPGKERELVADITWSGGSTYYADSVKGRFTSSRDNAKNTVYLQMNSLKPEDSAVYYCNSAGYYTKYDYWGQGTQVTVSS", "polyreactivity (PSR sort gate)": "low polyreactivity"},
      {"sequence": "QVQLVESGGGLVQAGGSLRLSCAASGSTFDPNAMGWYRHAPGKERELVAAIDSGGSSYYADSVKGRFTISRDNAKYTVYLQMNSLKPEDTAVYYCASNIVGRSPYDSNYDFEYWGQGTQVTVSS", "polyreactivity (PSR sort gate)": "low polyreactivity"},
      {"sequence": "QVQLVESGGGLVQAGGSLRLSCAASGSTFDPNAMGWYRQAPGKERELVAVIDSGDGTTNYADSVKGRFTISRDNAKNTVYLQMNSLKPEDTAVYYCNKDTLVYGYVQDYEYWGQGTQVTVSS", "polyreactivity (PSR sort gate)": "low polyreactivity"},
      {"sequence": "QVQLVESGGGLVQAGGSLRLSCAASGSTFDPNAMGWYRQAPGKETELVAAIDSGGSTYYADSVKGRFTISRDNAKNTVYLQMNSLKPEDTAVYYCATKQPTWVPRVIISYTKFDYWGQGTQVTVSS", "polyreactivity (PSR sort gate)": "low polyreactivity"},
      {"sequence": "QVQLVESGGGLVQAGGSLRLSCAASGSTFDPYAMGCYRQAAGKEREFVAYIDSSVGSTFYADSVKGRFTISRDNAKNTVYLQMNSLKPEDTAVYYCAAASRVAKGRWRLYDYWGQGTQVTVSS", "polyreactivity (PSR sort gate)": "high polyreactivity"},
      {"sequence": "QVQLVESGGGLVQAGGSLRLSCAASGSTFDPYGMGWYRQAPGKERELVAAITSSGRTNYADSVKGRFTISRDNAKNTVYLQMKSLKPEDTAVYYCATRKERYFYRGYEYWGQGTQVTVSS", "polyreactivity (PSR sort gate)": "low polyreactivity"},
      {"sequence": "QVQLVESGGGLVQAGGSLRLSCAASGSTFDQNTMGWYREAPGKERELVASITGGDSTNYADSVKGRFTISRDNAKNTVYLQMNSLKPEDTAVYYCAADKLYQPGIGDDYWGQGTQVTVSS", "polyreactivity (PSR sort gate)": "low polyreactivity"},
      {"sequence": "QVQLVESGGGLVQAGGSLRLSCAASGSTFDSNAMGWYRQAPGKERELVAAIRFSGGSTNYADSVKGRFTISRDKAKNTVYLQINSLKPEDTAVYYCAARYPNLRSRWYYYWGQGPQVTVSS", "polyreactivity (PSR sort gate)": "high polyreactivity"},
      {"sequence": "QVQLVESGGGLVQAGGSLRLSCAASGSTFDSYAMGWSRQAPGKERELVARINDSGGSTYYADSVKGRFTISRDNAKNTVYLHMNSLKPEDTAVYYCNAYSWYFLPNMDYWGQGTQVTVSS", "polyreactivity (PSR sort gate)": "low polyreactivity"},
      {"sequence": "QVQLVESGGGLVQAGGSLRLSCAASGSTFDSYAMGWYRQAPGKERELVAAISSGGSTNYADSVKGRFTISRDNAKNTVYLQMNSLKPEDTAVYYCAAYGGHIWWLYRHYGYDYWGQGTQVTVSS", "polyreactivity (PSR sort gate)": "low polyreactivity"},
      {"sequence": "QVQLVESGGGLVQAGGSLRLSCAASGSTFDSYAMGWYRQAPGKERELVAAITNGGSTYYADSVKGRFTISRDNAKNTVYLQMNSLKPEDTAVYYCATDDYLLDYLYDYWGQGTQVTVSS", "polyreactivity (PSR sort gate)": "low polyreactivity"},
      {"sequence": "QVQLVESGGGLVQAGGSLRLSCAASGSTFDSYAMGWYRQAPGKERELVAVINSGGSTNYADSVKGRFTISRDNAKNTVYLLMNSLKPEDTAVYYCSAEERYRWHVVGWGYWYDYWGQGTQVTVSS", "polyreactivity (PSR sort gate)": "low polyreactivity"}
    ]}
  ]
}
